Experimental findings from patent US20040170622A1, “Methods and compositions for modulating XBP-1 activity” (President and Fellows of Harvard College, priority 2002, published 2004) are described below.

The subject of assay [1] is IRE1α-mediated XBP-1 mRNA splicing. Put plainly: XBP-1 mRNA level and splicing in J558 cells (Northern blot, RT-PCR). It counts as cell-based. The following applies: J558, Tm 4 hrs; MG-132 10 μM, PS-341 10 μM, ZL3VS 50 μM, AdaAhxL3VS 50 μM. Here is the method: (A) XBP-1 mRNA levels in ER stressed J558 cells treated with Tm for 4 hrs in the absence or presence of MG-132. Cells were pretreated with MG-132 for 1 hr before adding Tm. XBP-1 mRNA levels were determined by Northern blot analysis. […] (C) Effect of a panel of PIs on XBP-1 splicing. Cells were treated with Tm for 4 hrs in the absence or presence of MG-132 (10 μM), PS-341 (10 μM), Lactacystin (10 μM), ZL3VS (50 μM) or AdaAhxL3VS (50 μM), and XBP-1 mRNA splicing measured by RT-PCR analysis. (D) IRE-1α phosphorylation in NIH3T3 cells were treated with Tm as indicated after 2 hrs of pretreatment with MG-132 (10 μM).
Total RNA was prepared by using Trizol reagent, electrophoresed on 1.2% agarose, 6% formaldehyde gels and then transferred onto Genescreen Plus membrane, (NEN, Boston, Mass.). […] Probes for ERdj4 and p58^IPK were generated from cDNA excised from EST clones (ATCC, Manassas, Va.) using appropriate restriction enzymes (ERdj4, IMAGE: 1920927; p58^IPK, IMAGE:2646147).

A further assay deals with XBP-1 mRNA. Briefly: XBP-1 mRNA induction by cytokines in purified splenic B cells (Northern blot). It counts as cell-based, mouse. The following applies: 20 μg/ml cycloheximide added 30 min before IL-4, 4 hours. How it is done: (§1) Mouse splenocytes or purified B cells (purified mature B cells were isolated from spleen and lymph nodes by magnetic CD43 depletion or B220 magnetic bead selection, Miltenyi Biotech, Auburn Calif.) were plated at 1×10^6 cells/ml in complete media containing RPMI 1640 supplemented with 10% fetal calf serum (FBS)(Hyclone Laboratories), glutamine (2 mM), penicillin (50 units/ml), streptomycin (50 μg/ml), Hepes (100 mM), nonessential amino acids (1×) sodium pyruvate (1 mM) and β-ME (50 μM) and stimulated with anti-CD40(1 μg/ml)(Pharmigen) or LPS (20 μg/ml)(Sigma). Cytokines (R&D Systems, Minneapolis, Minn.) were used at IL-4 (20 ng/ml), IL-2 (20 ng/ml), Il-5 (20 ng/ml), IL-6 (20 ng/ml ), IL-10 (20 ng/ml ) and IL-13 (20 ng/ml). Stimulated B cells were split to a cell concentration of 1×10^6 cells/ml with fresh media every 24 h. The BCL1 (CWS13.20-3B3 ATCC CRL 1699) cell line was cultured in RPMI media supplemented with 10% FBS, gentamicin (20 μg/ml), and β-ME (50 μM). To induce differentiation cells were plated at 2×10^5 cells/ml and treated with recombinant mouse IL-2 and IL-5 (20 ng/ml) (R&D systems).
Total RNA was isolated using TriZo1 (Gibco-BRL) or Qiashedder/Rneasy RNA purification columns (Quiagen). Northern Blots were performed as described (Rengarajan et al., 2000 Immunity. 12:293-300). Briefly, 7-10 μg RNA were electrophoresed on 1.2% agarose, 6% formaldehyde gels transferred onto Genescreen membrane (NEN) and covalently bound to the membrane using UV Stratalinker (Stratagene). The following probes were used after ^32P-radiolabeling with the ReadyPrime labeling system (Amersham-Pharmacia): XBP-1 (15-830 of the murine coding region), GRP94 and GRP78 (both a kind gift of R. J. Kaufman Univ. of Michigan (Lee et al., 2002)), Blimp (Nco1-Sca1 fragment), c-myc cDNA and Il-6 cDNA . […]
Since XBP-1 is required for terminal B cell differentiation, it was important to identify the stimuli that regulate XBP-1 gene expression. A plethora of cytokines (IL-2, IL-4, IL-5, IL-6, IL-10, IL-13) has been implicated in plasma cell differentiation both in vitro and in vivo (reviewed in Calame, K. L. (2001 Nat. Inimunol. 2: 1103-1108; Liu, Y. J., and Banchereau, J. (1997). Sem Immunol 9: 235; Zubler, 1997Sem. Hematol 34:13). It was possible that these cytokines effected terminal B cell differentiation by modulating XBP-1 gene expression. Thus, the ability of these cytokines to upregulate XBP-1 mRNA transcripts in B cells was tested. Purified splenic B cells were cultured for 24 h in the presence or absence of various cytokines and XBP-1 expression determined by Northern blot analysis. […] XBP-1 mRNA levels were determined by Northern blot analysis with γ-actin as control. […] XBP-1 mRNA levels were determined as above. […]

Assay [2] deals with XBP-1s (spliced form of murine XBP-1 protein, 371 aa) (mouse) (UniProt O35426). Put plainly: cell-based or functional assay.
For a further assay, the system named is BCL-1 cells. Briefly: IgM secretion by retrovirally transduced BCL-1 cells (ELISA). Type of assay: cell-based. How it is done:
as §1
(§2) Assays to measure immunoglobulin or cytokine levels in culture supernatants were performed as described (e.g., Hodge et al., 1996 Immunity. 4:397-405 or Science. 1996 274:1903-5).
The XBP-1 cDNAs for the unspliced (XBP-1u/s) and the spliced (XBP-1s) forms were PCR-amplified from the total RNA of untreated and tunicamycin treated NIH3T3 cells, respectively, with a primer set (5′-[…]-3′ (SEQ ID NO: 7) and 5′-[…]-3′) (SEQ ID NO: 8). XBP-1u form was generated by a PCR-based mutagenesis from XBP-unspliced/s cDNA so that the two G residues at position 532 and 535 were changed to A without changing amino acid sequences in the XBP-1u open reading frame. Numbers are based on the sequences from gene bank database (NM_013842 [gi:13775155]). These XBP-1 cDNAs were inserted into the GFP-RV retroviral vector by using blunt end ligation (Sambrook et al., 1989). EFFECTENE transfection (Quiagen) was used to introduce the DNA into the Phoenix cell line as described by manufacturer (e.g., Reimold et al., 2001 Nature. 412:300-7 or Int Immunol. 2001 13:241-8). Viral supernatants were harvested after 48 hours and frozen at −80° C. for later use. B cells were purified from mouse spleens using CD43 depletion or positive selection with B220+ magnetic beads as described by the manufacturer (MidiMacs, Miltenyi Biotech). B cell purity was generally near 95% as confirmed by flow cytometry. The B cells (10^6 cells /ml) were then activated in culture with LPS 10 μg/ml and F (ab′)2 anti-IgM (5 μg/ml Southern Biotechnology Associates Inc.) for 24 hours. […]
For orientation: ELISA stands for enzyme-linked immunosorbent assay.

The next assay has as its system XBP-1^−/− B cells. Briefly: Ig production by retrovirally transduced XBP-1-/- primary B cells (ELISA). It counts as cell-based, mouse. The following applies: LPS 10 μg/ml 72 h. How it is done:
as §2
(§3) The XBP-1 cDNAs for the unspliced (XBP-1u/s) and the spliced (XBP-1s) forms were PCR-amplified from the total RNA of untreated and tunicamycin treated NIH3T3 cells, respectively, with a primer set (5′-[…]-3′ (SEQ ID NO: 7) and 5′-[…]-3′) (SEQ ID NO: 8). XBP-1u form was generated by a PCR-based mutagenesis from XBP-unspliced/s cDNA so that the two G residues at position 532 and 535 were changed to A without changing amino acid sequences in the XBP-1u open reading frame. Numbers are based on the sequences from gene bank database (NM_013842 [gi:13775155]). These XBP-1 cDNAs were inserted into the GFP-RV retroviral vector by using blunt end ligation (Sambrook et al., 1989). EFFECTENE transfection (Quiagen) was used to introduce the DNA into the Phoenix cell line as described by manufacturer (e.g., Reimold et al., 2001 Nature. 412:300-7 or Int Immunol. 2001 13:241-8). Viral supernatants were harvested after 48 hours and frozen at −80° C. for later use. B cells were purified from mouse spleens using CD43 depletion or positive selection with B220+ magnetic beads as described by the manufacturer (MidiMacs, Miltenyi Biotech). B cell purity was generally near 95% as confirmed by flow cytometry. The B cells (10^6 cells /ml) were then activated in culture with LPS 10 μg/ml and F (ab′)2 anti-IgM (5 μg/ml Southern Biotechnology Associates Inc.) for 24 hours. The 1 ml of activated B cells (10^6 cells/ml) were mixed with 4 μg of polybrene and 1 ml of virus-containing supernatant and spun at 1000 g for 45 minutes at 24° C. Cells were incubated for 24-36 h at 37° C. and then GFP+ cells were flow sorted and returned to culture with and without stimulation.
The effects of these three different forms of XBP-1 on Ig secretion were compared in wild type and XBP-1^−/− B cells. In vitro activated splenic B cells were transduced using retroviruses expressing bicistronic mRNA encoding XBP-1u/s, XBP-1s, XBP-1u or control GFP. In FIGS. 5(A) and (B) purified B cells from wt and XBP-1^−/− mice were activated in culture with LPS 10 μg/ml and F (ab′)2 anti-IgM (5 μg/ml) for 24 hours. Retroviral transduction with GFP alone (GFP-Rv), XBP-1u/s (XBP-1u/s GFP Rv), XBP-1s (XBP-1s GFP Rv) or XBP-1u (XBP-1u GFP Rv) of activated B cells was performed. Cells were incubated for 24-36 h at 37° C. and then GFP+ cells were flow sorted and then returned to culture with LPS stimulation (10 μg/ml) for 72 h. IgM panel(A) and IgG2b panel (B) production analyzed by ELISA from culture supernatants of stimulated B cells. Experiments were done at least three times and standard deviation is shown.

The next assay concerns IL-6. Briefly: IL-6 production by retrovirally transduced wt and XBP-1-/- B cells (ELISA, Northern blot). It counts as cell-based, murine. The following applies: LPS 72 h. How it is done: as §2, §3
In human multiple myeloma cells, XBP-1 was induced by IL-6 treatment and implicated in the proliferation of malignant plasma cells (Wen et al., 1999). However, no role for IL-6 in upregulating XBP-1 transcripts or in mediating splicing of XBP-1 RNA in mature B cells has been described (FIG. 6A). The ability of XBP-1 to induce IL-6 production in wt and XBP-1^−/− primary B cells was tested. As described above, in vitro activated murine splenic B cells were transduced using retroviruses expressing bicistronic mRNA for XBP-1u/s, XBP-1s, XBP-1u and control GFP. After cell sorting, GFP^+ cells were stimulated with LPS and assayed for cytokine production after 72 h. In FIG. 6 panel (A) purified B cells from wt and XBP-1^−/− mice were activated in culture with LPS 10 μg/ml and F(ab′)2 anti-IgM (5 μg/ml ) for 24 hours. Retroviral transduction with GFP alone (GFP-Rv), XBP-1u/s (XBP-1 u/s GFP Rv), XBP-1s (XBP-1s GFP Rv) or XBP-1u (XBP-1u GFP Rv) of activated B cells was performed. Cells were incubated for 24-36 h at 37° C. and then GFP+ cells were flow sorted and then returned to culture with LPS stimulation (10 μg/ml) for 72 h. Cytokine production was analyzed by ELISA from culture supernatants of stimulated B cells. Experiments were done at least three times and standard deviation is shown. In panel (B) Total RNAs were prepared from stimulated B cells above and XBP-1 mRNA levels were determined by Northern blot analysis with γ-actin control

For the molecule `CC(C)C[C@@H](/C=C/S(C)(=O)=O)NC(=O)[C@H](CC(C)C)NC(=O)[C@H](CC(C)C)NC(=O)CCCCCNC(=O)CCCCCNC(=O)CCCCCNC(=O)CC12CC3CC(CC(C3)C1)C2` [AdaAhx3L3VS], the “effect on Tm-induced XBP-1 mRNA splicing” value in assay [1] was “suppressed XBP-1 mRNA splicing as efficiently as MG-132”.

With `CC(C)C[C@@H](/C=C/S(C)(=O)=O)NC(=O)[C@H](CC(C)C)NC(=O)[C@H](CC(C)C)NC(=O)OCc1ccccc1` [ZL3VS], the “effect on Tm-induced XBP-1 mRNA splicing” value in assay [1] was “suppressed XBP-1 mRNA splicing as efficiently as MG-132”.

On to `C[C@@H]1C[C@@H]([C@H](O)CC2CC(=O)NC(=O)C2)C(=O)[C@@H](C)C1` [cycloheximide, reference compound], for which the “effect on IL-4-induced upregulation of XBP-1 mRNA” value in the assay with XBP-1 mRNA is given as “did not affect the upregulation of XBP-1 mRNA in response to IL-4”.

Take “XBP-1u (unspliced form of murine XBP-1 protein, 267 aa) (from UniProt O35426 1-267)”: in assay [2], the fold induction of luciferase, XBP-luciferase reporter in NIH3T3 cells, 5 uM MG-132, with unspliced XBP-1 (fold induction) was 5.8 and the fold induction of luciferase, XBP-luciferase reporter in NIH3T3 cells, 5 uM MG-132, without unspliced XBP-1 (fold induction) worked out at 41.9.

B1: XBP-1u/s: vector expressing XBP-1 mRNA giving the unspliced form and, upon IRE-dependent splicing, the spliced form (protein, UniProt O35426 1-267, looked up)
X-box-binding protein 1: MVVVAAAPSAATAAPKVLLLSGQPASGGRALPLMVPGPRAAGSEASGTPQARKRQRLTHLSPEEKALRRKLKNRVAAQTARDRKKARMSELEQQVVDLEEENHKLQLENQLLREKTHGLVVENQELRTRLGMDTLDPDEVPEVEAKGSGVRLVAGSAESAALRLCAPLQQVQAQLSPPQNIFPWTLTLLPLQILSLISFWAFWTSWTLSCFSNVLPQSLLVWRNSQRSTQKDLVPYQPPFLCQWGPHQPSWKPLMNSFVLTMYTPSL
modifications: GFP retroviral vector
notes: vector expressing XBP-1 mRNA giving the unspliced form and, upon IRE-dependent splicing, the spliced form
In the case of B1, in the assay with BCL-1 cells (GFP positive BCL-1 cells treated with IL-2 and IL-5 for 3 days), the “IgM secretion compared to vector alone controls” value is on record as “approximately threefold”. Besides, the Ig secretion result with BCL-1 cells (GFP positive BCL-1 cells untreated with cytokine) is listed as “neither XBP-1u/s nor XBP-1s forms were able to induce Ig secretion”. Also, in the assay on XBP-1^−/− B cells, the “secretion of IgM compared to control cells” value is reported as “approximately ten-fold”. Moreover, the “IL-6 secretion over control” value in the assay with IL-6 is on record as “approximately 2 fold”.
